Assay: soluble fraction after stress (log2 fold change); higher = more stays soluble; pooled small domains, quantitative proteomics
Details: stress: pH 4
In short: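 After pH 4 stress, pooled custom libraries of small protein domains were quantified with high-throughput quantitative proteomics. Aggregation propensity is taken from the fold change in each domain's soluble amount following the acid stress. The scale is log2, where higher values mean more stayed soluble.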

Sequence	soluble fraction (log2)
HMAKQQTTTTAHVVTTGETLYSIAQKNGISVEELKKSNNITSDKLRPGQTLHITKVSKTSSTAK	0.129
HMAKRPRFEDVIKEINTEIQKRKGKWNLTILSWMDFDDVAQVIRIHIYRKWHLYDPSKPLGPWLNR	0.322
HMAKSETAKIKATPYGWLRVRDTPSLNGAEIARVNSGDEYKVLEKETGWIKIKVSDTVEGWVSDAYIELS	0.16
HMAKSKYETHVLPNLDKIIKWAKAGATAKEIAANLHIAYSTFRKYLDEGQEGDERYAALSAAFAQA	0.22
HMALDLNEDEKLLVELIEKAGGTAGLGELKEASGLSGKKWDKTTKNLSKEGLIKVEKNESGLWVHLT	-0.423
HMALDLPVKRVKGKEYYYYKVKKGESLYGISKHLGLPLDSIVKSNPSVADGVRKGDMLLFPLEEYT	0.115
HMALKQADFDFIRQMIQQRAAIVLDDNKHYFVESRLGPVVEETGSKSLDQLIDQLRSSSNSLLQQKVTEAI	-0.324
HMALLSDEERIATVFAARLGGYSHQEIYKLLQDRFGPSLPAAYSEKSVLTDLQTALSQVPSL	-1.41
HMALPEHIEPFLRGLGQALAEGDSYEDVQERLLRAYPYLDSTEFQTALARVIFISDLWGRLN	-1.02
HMALPPPELRGATGEAVTALRPAGIALIQGKRYDVLAEGGEWIAAGAAVRVRDIRNGHLIVSDA	0.166
HMALRFMAYGRINGTNVHFRTGASASTASLGRYSRGTEFGVYDKIGGWYRVRLLSTGQEGYVYSRYLTLTG	-0.0807
HMALSGTVQNFAGGIMILIFRPFKTGDYIEALGYFGKVSEVNIVSTKLRTFDNKTIILPNGALSNGNIQNY	-0.775
HMALSSQQIKDMQSWYGTKADGIWGSKSTTAAGGRDAGAAYSLYSSNKGRYSSYTDYMSYGGG	-0.000306
HMALSTRERMSFVLEVLKEKEFIPFVDLFSPEEGRAGVVVTFLALMELMKDSLIEIVQTKNFGEIHVRARL	-1.07
HMALTQEQLGQRLQDARKSVALTQQEVAEDLGLSRESLAQIEAGSRSVNSLEIVRLARLYGRSLSSILLE	-0.299
HMALYSEQVSEIEKALMSLPPKYQLVMLLLYAEDLKYEQIAEILDEPIGTVKTKIHRARKILKERF	-0.0112
HMAMDSGELEAIVDRLISEHPDDWAALTAGDDRERKKKSGFFVGEVMKATRGQADGRAVIELLASRSA	-0.605
HMAMDYTVVHSDRRTIAIQIQRDGRVVVRAPYAATAEDIRRVVDSHRDWVEKTVRRQQEQLAAS	0.238
HMAMNITQRHQEILAVIKQEKHITVSEISKLLGVSEVTIRKDFNYLEEKNLIYRHHGGASLNN	-0.0786
HMAMPQPVARALHRLGQDISAARRMRRLSQEDLAQRIGTSLSTVRRMEDGYPGTALHTFLRALHML	-0.4
HMAMSDFDALSNRISTLSQGRASAVRMKDGIVSLVLDIGGLSAEERKAMTAAIEGEGRGYPSVTQVRILET	0.0485
HMANAGKFDSDMGEKINFPGNRVSLTPSELEAARELAAIMGDRFFSQLIPTTSKVTVTEMLQSLK	-0.849
HMANGTVKWFNTTKGFGFIAPETGGKDVFVHISAVERSGLTGLADDQKVTFDVEAGRDGRESAVNLAL	-0.613
HMANKTVPNVSGKTVAEARAIIENQSLQVGEEKEEYSDSVAEGYIIRTNPTAGSQKKEQSKIDLVVSKG	-0.211
HMANLDSLIKKVGQYAKDKQSISVDGIKKDLSIDKDMVKEALAELLKIGVVDKPDEAGQYKVIM	0.0802

Sequence	soluble fraction (log2)
HMANPMFAEIKKVQKQLNEMGYQAGPADGLWGNKTENAVKLLLSDNNLKWDGTFDQNEIKIIEEIFLSND	-0.257
HMANPRLEYFLSNITPDWNEFSPELKNQLLIENADPYKLEQYILQVSPDMYIEEQNAPGTVRQMAGDITG	-1.54
HMANSANARKSLVSKLIAGGKIASQSDLVKALKKQGIVVTQGTASRDLEDIGAIRVRNSEGEIVYALT	0.108
HMANSDEEVLNKISTKAPTFNELINKIKEFDDTKEINDIWLDVYRYYITDEEYKEIAKKVITGLTYTNQ	-0.544
HMANSLLVTAQAGGQKLFNFLKRSLHAENNEIHRWIRTGQVRINKKRTKAFDIVHENDEIRIPPFALNR	-0.053
HMANSREIPKLAGIEQEEAVKQLLDLDLKPVIEEITDDDTDAGDVVRTDPAAGEHVAVDTEITVFISIG	-0.192
HMANVQLAKNLKTLRKKYNYTQQDVSTFLNITRQAYSHYEQALREPDLNTLVHLSRFYQVTLDELI	-1.6
HMANYHDIAADLRSKINHGFYEEEKKLPKQSELAADYQTSRVTIQKALNILQMEGIIYGKKGTGTFIRDSY	0.0346
HMANYTVNAYNNGGTGGSVNMRSGPSTNDGIVVRVPHGATVTGTKSGTWSYMTYNTYTGYMMSVYLDEQS	-0.0556
HMAPAPYLVKVTANKLNIRSGPGTNYKIQGAITDKGTYTIVDTQGRWGKLKSGAGWIYLNYTKK	0.22
HMAPASADQLIDQLNEKVKAKDDKGVAALLTAAQTKMAELAQKDPKEAQAYVAKLQQWMQSNSENIKAALK	0.204
HMAPAYELTEEETKIIEILKANENIDLNELKSQAALSGKKWDKSMKNLAKYNLTKVTVDGDAKTVAYLA	-0.516
HMAPELSGEKLWDAQDVAMFLRVKPTTVWSYVSRDGFPAPVSQAGRAGMWSEPLVVQWYLSRPG	-0.16
HMAPEPFILSVDADGKYYIDDLEKTKQEILIYATALYQEKPTTDFLVRGDKSAAYNDVLQAMVVLKE	0.171
HMAPETALQILEQIQINPKVTMTDLANLTGYSRRWVAQTMKQLQELNVIKRVGSTKTGYWEIIA	-0.142
HMAPGSKAEIPEDLMKVINKDPKMKAFVATLNKANIMAISFRLSTAKKPETRERRFNLILETLKRGEKF	-0.644
HMAPKVTLNETETAIFEKMQQEKQLLLSELRTHFDISNKLWDTSIKTLTKNQLLTVSKEADLLWIKL	-0.935
HMAPLAVIFPEPWRGMIAPEKLEGLTQALSLNPRPGYQHDPTRRYGVSLDGLDVRFTIDGDTLTVVEVVT	-1.12
HMAPNKLQQQEVWTKALPLLQQMIMTIRQIDAAGGDSSPERELLEETAARFDETLDVERFLP	-0.774
HMAPPPLAGAREALREQIRRGSLSARRGFDAYADALGLPAGTRGAHPIFAALQRLDYPQALRLLDQEPT	-0.108
HMAPQVKIPNLVDVSQRQAEAILNSYGLKVGHLIYKPDLAKDAVLGFMFNGRSLKAGDELAKGSSIDLILG	0.192
HMAPRDKADKYVAAGIAEELVPILQKVGYYLVTDLKDVKAQKIQQQIGEIIKKYKLDIEKPSVQDIEGWN	-0.259
HMAQDIEQLEKAVSFYTRMDPAAAALSITNLDQKTAVNILMRMKDKQASAVLESMTAERSSELIDSIARK	-0.863
HMAQELPYEKVTMNGKMFYVYHVKAGEGLYLISRTFSVNADEILKFNPSIENGLKSGQVLYIPIK	-0.403
HMAQISDESALYDLVKSVLDANPQSIADYKAGRDRALGFLMGQAMKLSKGKANPPVINKILKEMLDK	0.292

Sequence	soluble fraction (log2)
HMAQKQLYIAGTDYTKNSTSQLVLAYFPAKPSSIKIFFDGIYQNKDKWSLFGKTIIFGLPISSNAVEVHYE	-0.201
HMAQLPADLSKVKSSQISDQQLTQIAQQAKNSGQSEQAVLQELKQRGLPDTEIQALGARISGLMQ	0.404
HMAQLVVTVDKLNKRTAIPVTLSDKSSNDSVVEKGFRFEGFPFVNTATNGKKWYKDREGFFYWAGGLMEEA	-0.0297
HMAQMDDPEMVLHIYNKMIQQRLFDTAVGYSYLKDLQEYLQSIPFIRKEDIFPIPVQHPQVEESLRKAK	0.0635
HMAQTSAELIIEYLKRNDGFMELTDKSPADEIYETFGISKKNFKMAVGSLYKNRVIEIGQNGIRLVE	-0.0445
HMAQTTKWREIHKVKRKETIFGIARDNGLTVDELIEANPEMTKPGYELKKGDFIYIPFPSKNIDTNAGTQT	-0.627
HMARAESYGDIARLEQLLDEHANIAALDPGKLPAVRQQIWTLMRAARMDHDLGLAERPEDDSFDDMLLHV	-0.0475
HMARAPIYPDGLTQREVEVLSLVAAGKTDREIAEELFIALRTVTTHVGNILNKIGAANRTEAAGYATRQGL	-1.4
HMARAVSPLEAIPGVGPRRRQQLLKQLGGMQEVARAGVEDLSRVPGISRALAQQIYDAFHGD	0.0348
HMARDPWDVLGVAKTATNDEIKRAFKRQAMMTHPDKQGGSEERFKEVNEAYSHIKDEQSRAKYQNSQ	0.0164
HMARDSYNGVQRTISTLLGQGNYDRAYDVAVGARGQMSKQQWSDVAKRIYEVSGIKIDDSVKY	-0.0224
HMARRSRADAVRNREALIDAAKAAFTEAGPDVSLEEIARRAGVGIGTLYRHFPTRDAVIEAVYR	-0.206
HMARRTPPPTVSELNALLRVAAPHIQRVILLGIYTGARIGPSELFSLKWDDVDLTRGVIGIRL	-0.39
HMARTDVKLREVAQELLRMGLLEESLRPHLYRTALASMERLNATLEPLDLIARADEIRGLVFLAVRH	-0.548
HMARVSGIDLPKNKRGYIGLTYIYGIGRSTALHILNSAGVDPEKKVHEWNDDETTAIRNIINAEIKVEGAL	-0.248
HMASAKTVAQSGTYKFAKTTAIKSSASDAASTVGTYYKGNTVNYNAKVTTNGQTWLRYTSYSGAQYYVKVS	0.218
HMASANMPDVLGLDAETAKQVLAAKGFTKVEIYPMESSEPANRVVRQSEDRDTMVALTKEILLGVSNGS	-0.0377
HMASENISYSQFINQVKNSMVESVSIEADGKTISGKYKSGSSFVTYGLNDPKLVDDLLSNNVEIL	0.0122
HMASGLITEEQAKSKALAHAGLSASQVNFIWVKQDWEDGRRVYEVEFYTDDYQEYDYEIDARTGEILSFDY	-1.06
HMASIGTATVTADNLRLRSEAGTGAETLTMAPKGAEVTVEEDAGDGWYKVTYGDTEGYMSGEWLKITLA	-0.0742
HMASLIGEEKALQIALEHAGVALENVAYSQVKLENDDGRWEYDTEFYSGSKEYDYEIDASTGEILGYDHD	-0.0579
HMASLSITVNGETRRAAPGSIADLVRAIGLDPAKVAVERNGEIAPRSTLADVALADGDVLEIVHFVG	0.147
HMASMEDILAEAKTKFQEGDLFKSVNEGIQGTHKLTLPLRIKESRIVDASGAAVYREGIWATVDK	0.185
HMASMNPVWLEFPNIPWGSAGWRMGWGEDYMRRWAKWYISLAEVERQSYKSDWPEPQEWEGFYAFMEHGT	-1.23
HMASPEIAFLNKFYQLSNTVNEISVMKIVKNYQEKYQQRISIEQMAKTLKTMGYAVRNNIISNIEEAPV	0.0906
